Consider ten molecules from patent US20120121583A1 (Genentech, published 2012).

Changes are numbered by the printed parent chain.

Experiment [1] deals with Biotinylated murine soluble TWEAK (amino acids 81-225 of SEQ ID NO: 61) (murine) (UniProt O54907). As to the kind of experiment: Biacore SPR, biotinylated murine soluble TWEAK on SA sensor, antibody as analyte, 37 C. On the technique in general: In SPR one partner is held on a chip, and binding of the other changes the refractive index at the surface.
Experiment [2] shares this target. Description: Biacore SPR, biotinylated murine soluble TWEAK on SA sensor, antibody as analyte, 25 C.
In experiment [3] the target is Mouse soluble TWEAK (mouse) (UniProt O54907). Description: competition ELISA: antibody pre-incubated with mouse soluble TWEAK, binding to coated mouse Fn14:Fc. Background: ELISA stands for enzyme-linked immunosorbent assay.
Experiment [4] deals with T1, Biotinylated human soluble TWEAK (amino acids 99-249 of SEQ ID NO: 60) (human, UniProt O43508 99-249, biotinylated (sites not given)).
T1 construct: Immobilised on the streptavidin sensor in the Biacore half-life assay; also called Human TWEAK; soluble human TWEAK
T1 sequence: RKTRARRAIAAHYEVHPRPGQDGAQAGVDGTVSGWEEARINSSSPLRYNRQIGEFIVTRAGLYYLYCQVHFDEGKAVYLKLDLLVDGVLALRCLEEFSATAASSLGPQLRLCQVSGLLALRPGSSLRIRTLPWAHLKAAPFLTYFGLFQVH
Description: Biacore SPR, biotinylated human soluble TWEAK on SA sensor, antibody as analyte, 37 C.

Experiment [5] addresses T2, Human recombinant soluble TWEAK (human, UniProt O43508 99-249).
T2 sequence: T1 sequence
As to the kind of experiment: cell-based or functional assay.

The target in experiment [6] is T3, human Flag-tagged soluble TWEAK (amino acids 106-249) (human, UniProt O43508 106-249).
T3 construct: N-terminal placement here is only an order of listing; not shown: Flag tag
T3 sequence: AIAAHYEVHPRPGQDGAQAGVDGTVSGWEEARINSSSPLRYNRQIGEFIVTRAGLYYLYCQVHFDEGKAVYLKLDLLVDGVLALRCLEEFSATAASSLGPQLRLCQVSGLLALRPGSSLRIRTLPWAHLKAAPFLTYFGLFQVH
Description: competition ELISA: antibody pre-incubated with human Flag-TWEAK, binding to coated human Fn14:Fc. The method, then: (§1) 96-well Maxisorp® plates (Nunc) were coated with 100 μl 1 μg/ml human Fn14:Fc (extracellular domain of human Fn14 (amino acids 1-75) fused to Fc portion of human IgG1) in PBS per well for 1.5 h at room temperature and blocked with a solution of 5% FBS in PBS for 30 minutes at room temperature under shaking. […] Wells were filled with 100 μl of anti-FLAG-HRP detection antibody, diluted 1:5000 in blocking buffer, and incubated for 1 h at room temperature. After four more wash steps, the signal was developed by addition of 100 μl 3,3,5,5-Tetramethylbenzidine (TMB) solution for approximately ten minutes. The reaction was stopped by adding 100 μl of 1 N HCl, and absorbance measured at 450 nm (reference wavelength 620 nm).

Experiment [7] concerns the target T1, Biotinylated human soluble TWEAK (amino …). Description: Biacore SPR, biotinylated human soluble TWEAK on SA sensor, antibody as analyte, 25 C. The method, then:
A Biacore 2000 instrument was used with a Biacore streptavidin coated sensor mounted into the system. The system buffer HBS-ET (10 mM HEPES pH 7.4, 150 mM NaCl, 1 mM EDTA, 0.05% Tween® 20) was used at a flow rate of 100 μl/min. The sample buffer was the system buffer. Biotinylated human soluble TWEAK (amino acids 99-249 of SEQ ID NO: 60) and biotinylated murine soluble TWEAK (amino acids 81-225 of SEQ ID NO: 61) was immobilized on different flow cells on the SA sensor at 150 RU each. The flow cell FC1 was used as a blank reference cell. Each antibody was injected into the system as an analyte at 100 nM at 100 μl/min for 2 min association time. The dissociation of the immune complexes were monitored for 5 min. The sensor surface was washed with HBS-ET for 10 seconds and regenerated using 2×2 minutes injections with 10 mM glycine pH 2.25. This procedure was done at 25° C. The kinetically rate limiting step of the complex dissociation phase in the interval [240 s-300 s] was taken to calculate the dissociation rate kd [1/s] (Biacore Evaluation Software 4.0). According to the equation t1/2 diss=ln(2)/(60×kd), the half-life of the immunocomplexes in minutes was calculated.

The target in experiment [8] is T2, Human recombinant soluble TWEAK. As to the kind of experiment: cell-based or functional assay. This is another data set of the same source.
Experiment [9] deals with T3, human Flag-tagged soluble TWEAK (amino …). Description: competition ELISA: antibody pre-incubated with human Flag-TWEAK 2.5 ng/ml, binding to coated human Fn14:Fc. Here is the method: as §1

B1: Antibody 27 (antibody, V domains shown)
VH: QVQLVQSGAEVKKPGSSVKVSCKASGFDFSTYYMSWVRQAPGQGLEWMGTVYVRQGTTYYASWLNGRVTITADESTSTAYMELSSLRSEDTAVYYCARGGYNYDDAFVIWGQGTLVTVSS
VL: DIQMTQSPSSVSASVGDRVTITCQASQNIYSNLAWYQQKPGKAPKLLIYTASYLASGVPSRFSGSGSGTDYTLTISSLQPEDFATYYCQTAYYNSRPDTVAFGGGTKVEIK
notes: also called humanized 305 variant 305-LC2 / 305-HC4
Consider B1, for which the t/2 diss was 19 min in experiment [1], 19 min in experiment [2], 147 min in [4] and 110 min in [7]. Besides, the IC50 in experiment [3] amounted to 8.2 ng/mL; in [6], 2.3 ng/mL. In addition, the “IL8-Secretion” value in [5] came to 197 ng/mL.

B2: Antibody 28 (antibody, V domains shown)
VH: EVQLLESGGGLVQPGGSLTLSCAASGFDFSTYYMSWVRQAPGKGLEWVSTVYVRQGTTYYASWLNGRFTISRDNSKNTLYLQMNSLRAEDTAVYYCAKGGYNYDDAFVIWGQGTLVTVSS
VL: B1 VL
notes: Humanized variant of antibody 305; also called humanized 305 variant 305-LC2 / 305-HC7
Turning to B2, the t/2 diss in experiment [1] is 17 min; in experiment [2], 19 min; in [4], 115 min; in experiment [7], 87 min. Further, the IC50 in experiment [3] worked out at 6.5 ng/mL; in experiment [6] it was 1.5 ng/mL. For the same molecule, the “IL8-Secretion” value in [5] was 165 ng/mL.

B3: Antibody 31 (antibody, V domains shown)
VH: B2 VH
VL: B1 VL with D1A, Q3R, V11F, V15T, S77C, P80S
notes: Humanized variant of antibody 305; also called humanized 305 variant 305-LC4 / 305-HC7
For the molecule B3, the t/2 diss was 19 min in experiment [1], 19 min in experiment [2], 151 min in [4] and 115 min in experiment [7]. For the same molecule, the IC50 in experiment [3] was determined as 7.1 ng/mL; in experiment [6], 1.7 ng/mL. For the same molecule, the “IL8-Secretion” value in [5] was found to be 94 ng/mL.

B4: Antibody 29 (antibody, V domains shown)
VH: B2 VH with T19R, Y80D
VL: B1 VL
notes: Humanized variant of antibody 305; also called humanized 305 variant 305-LC2 / 305-HC8
As to B4, the t/2 diss in experiment [1] came out at 21 min; in experiment [2], 22 min; in [4], 195 min; in [7] it was 146 min. For the same molecule, the figures for the half-maximal inhibitory concentration (IC50) in experiment [3] and in [6] were 5.7 ng/mL and 1.8 ng/mL, respectively. Besides, the “IL8-Secretion” value in [5] turned out to be 78 ng/mL.

B5: Antibody 34 (antibody, V domains shown)
VH: B2 VH with T19R
VL: B1 VL with D1A, Q3R, V11F, V15T, S77C, P80S
notes: Humanized variant of antibody 305; also called humanized 305 variant 305-LC4 / 305-HC2
Consider B5, for which the t/2 diss in [1] was 20 min; in [2] it was 22 min; in experiment [4], 185 min; in experiment [7], 158 min. Besides, the 50% inhibitory concentration (IC50) in experiment [3] amounted to 5.9 ng/mL; in [6], 1.9 ng/mL. For the same molecule, the “IL8-Secretion” value in experiment [5] is 24 ng/mL.

B6: Antibody 32 (antibody, V domains shown)
VH: B2 VH with T19R, Y80D
VL: B1 VL with S10T, V11L, D70E, Y71F, E81D
notes: Humanized variant of antibody 305; also called humanized 305 variant 305-LC6 / 305-HC8
Consider B6, for which the t/2 diss worked out at 20 min in [1], 17 min in [2], 50 min in experiment [4] and 67 min in [7]. Moreover, the half-inhibitory concentration (IC50) in experiment [3] was 5.4 ng/mL; in experiment [6], 1.5 ng/mL. Also, in experiment [5], the “IL8-Secretion” value came out at 134 ng/mL.

B7: Antibody 33 (antibody, V domains shown)
VH: B1 VH
VL: B1 VL with D1A, Q3R, V11F, V15T, S77C, P80S
notes: Humanized variant of antibody 305; also called humanized 305 variant 305-LC4 / 305-HC4
Take B7: the t/2 diss in [1] stood at 15 min; in experiment [2], 19 min; in [4], 99 min; in [7], 127 min. The concentration for half-maximal inhibition (IC50) turned out to be 6.7 ng/mL in [3] and 1.7 ng/mL in experiment [6]. Besides, the “IL8-Secretion” value in [5] was 26 ng/mL.

B8: Antibody 30 (antibody, V domains shown)
VH: B2 VH with T19R, R87T
VL: B1 VL with Y71F
notes: Humanized variant of antibody 305; also called humanized 305 variant 305-LC1 / 305-HC10
With B8, the t/2 diss in [1] is 15 min; in experiment [2] it was 17 min; in [4] it was 45 min; in experiment [7], 50 min. Besides, the 50% inhibitory concentration (IC50) in experiment [3] amounted to 7.6 ng/mL; in experiment [6], 2.3 ng/mL. Also, the “IL8-Secretion” value in [5] worked out at 207 ng/mL.

B9: TW-305 (antibody, V domains shown)
VH: QEQLVESGGGLVQPGGSLTLSCKASGFDFSTYYMSWVRQAPGKGLEWIGTVYVRQGTTYYASWLNGRFTISSDNAQNTVDLKMNSLTAADTATYFCAKGGYNYDDAFVIWGPGTLVTVSF
VL: AIEMTQTPFSVSAAVGGTVTINCQASQNIYSNLAWYQQKPGQPPKLLMYTASYLASGVPSRFKGSGSRTEYTLTISGVQCADAATYYCQTAYYNSRPDTVAFGGGTEVVVK
notes: also called Antibody 305; rabbit antibody 305
In the case of B9, the “IL-8 Secretion IC50” value in experiment [8] was 99 ng/mL. In addition, the IC50 in experiment [9] is 2.5 ng/mL.

B10: TW-304 (antibody, V domains shown)
VH: QSLEESGGDLVKPGASLTLTCKASGFSFSSTYYMCWVRQAPGKGLEWIGCIYVGSSGAPYYASWAKGRFTISKTSSTTVALQMTSLTPADTATYVCTRSVHFGDLWGPGTLVTVSS
VL: DVVMTQTPSPVSAAVGGTVTIKCQASQSIGNDLSWYQQKPGQRPKLLIYSVSTLASGVPSRFKGSGSGTEYSLTISDVQCADAATYYCQCIDYGNNYVGNTFGGGTEVVVK
notes: also called Antibody 304; rabbit antibody 304
For the molecule B10, the “IL-8 Secretion IC50” value in [8] stood at 109 ng/mL. The IC50 in experiment [9] turned out to be 2.8 ng/mL.

One may read the IC50 as the point on the concentration scale where inhibition reaches its midpoint. A low value points to higher potency.
